Source: PMC10653858 (mBio, 2023)

B1: histone H3 peptide P2 (12-mer, residues 1-12), NH2-ARTKQTARKSTG-COOH (peptide)
peptide: H-ARTKQTARKSTG-OH
notes: also called 12-mer peptide
B2: histone H3 peptide P1 (15-mer, residues 3-17), NH2-TKQTARKSTGGKAPR-COOH (peptide)
peptide: H-TKQTARKSTGGKAPR-OH
notes: also called 15-mer peptide; (3-17)-N-terminal H3 P1 peptide

Biological target: LegAS4 (84–532aa), RomA homolog of L. pneumophila strain Philadelphia (L. pneumophila strain Philadelphia, UniProt Q5ZUS4 84-532)
Test: crystal structure
Conditions: both partners purified

Binder | binding result
B1 | binds
B2 | binds
